Test results: the nanobody polyreactivity screen of Harvey et al. (2022)

Assay: yeast display, Sf9 membrane polyspecificity reagent, FACS + sequencing; frameworks hold sequencing errors
Outline: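 In a synthetic yeast display library (Saccharomyces cerevisiae BJ5465), nanobody expression was induced with galactose for 36–48 hours. FACS gates were set low and high (top ~1%) using anti-HA fluorescence for expression and streptavidin fluorescence for binding of the Sf9 membrane reagent. Each polyreactivity label is drawn from the gate of origin.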

| Sequence | polyreactivity (PSR sort gate) |
| --- | --- |
| QVQLVESGGGLVQAGGSLRLSCAASGLIFWHYAMGWYIQAPGKERELVARISYGGGSTYYADSVKGRFTISRDNAKNTVYLQMISLKPEDTSVYYCNAKYYSVSQYYWGQGTQVTVSS | high polyreactivity |
| QVQLVESGGGLVQAGGSLRLSCAASGLIFWQYAMGCYRQAPGKERELVAAISIGGSTNYADSVKGRFTISRDNAKNTVYFQMNSLKPEDTAVYYCNAAFLRQVWAGYNYWGQGTQVTVSS | high polyreactivity |
| QVQLVESGGGLVQAGGSLRLSCAASGLIFYAYAMGWYRQAPGKERELVAAISGSGGNTYYADSVKGRFTISRDNAKNTVYLQMNSLKPEDTAVYYCAADYTAAYPDSMYYWGQGTQVTVSS | low polyreactivity |
| QVQLVESGGGLVQAGGSLRLSCAASGLIFYDNMGWYRQAPGKERELVAAISSSGGSTSYADSVKGRFTISRDNAKNTVYLQMNSLKPEDTAVYYCAAQYPAYYTNSYWGQGTQVTVSS | low polyreactivity |
| QVQLVESGGGLVQAGGSLRLSCAASGLIFYDNMGWYRQAPGKERELVAAISSSGGSTSYAYSVKGRFSISRDNAKYTVYLQMISLKREDTAVYYCAADSYRAYLGFVGFDYWGQGTQVTVSS | low polyreactivity |
| QVQLVESGGGLVQAGGSLRLSCAASGLIFYFYVMGWYRQAPGKERELVAGIDTGSSTNYADSVKGRFTISRDNAKNTVYLQMNSLKPEDTAVYYCAADSVSKYGSDYWGQGTQVTVSS | low polyreactivity |
| QVQLVESGGGLVQAGGSLRLSCAASGLIFYGNAMGWYREAPGKERELVAAISRRGGRTYYADSVKGRFTISRDNAKKSVYLQMHSLKPEDTAVYYCAAGVPKNGQAGYDYWGQGTQVTVSS | high polyreactivity |
| QVQLVESGGGLVQAGGSLRLSCAASGLIFYHNAMRWYRQAPGKERELVAAMTASGGSTYYADSVKGRFTISRDNAKNTVYLQMNSLKPEDTAVYYCAADGPLDSDLDYWGQGTQVTVSS | low polyreactivity |
| QVQLVESGGGLVQAGGSLRLSCAASGLIFYKNAMGWYRQAPGKEREFVAAISRSGASTYYADSVKARFTISRDNAKNTVYLQMNSLKPEDTAVYYCAARAGANYRMDYWGQGTQVTVSS | high polyreactivity |
| QVQLVESGGGLVQAGGSLRLSCAASGLIFYLYAMGWYRQAPGKEREFVAAITTSGGSTHYADSVKGRFTISRDNAKNTVYLQMNSLKPEDTAVYYCAADDYFHGPGLEFDYWGQGTQVTVSS | low polyreactivity |
| QVQLVESGGGLVQAGGSLRLSCAASGLIFYPYAMGWYRQAPGKERELVAAITSGDSTYYADSVKGRFTISRDNAKNTVYLQMNSLKPEDTAVYYCNADASYYYYHSDTVYGFDYWGQGTQVTVSS | low polyreactivity |
| QVQLVESGGGLVQAGGSLRLSCAASGLIFYPYAMGWYRQAPGKERELVAGISSSGDSTYYADSVKGRFTISRDNAKNTVYLQMNSLKPEDNAVYYCNTGWDPYGYDYWGQGTQVTVSS | low polyreactivity |
| QVQLVESGGGLVQAGGSLRLSCAASGLIFYQYAMGWYRQAPGKERELVAAINWSGGSTYYADSVKGRFTISRDNAKNTVYLQMNSLKPEDTAVYYCAADTAFRFALTRYRPMDYWGQGTQVTVSS | high polyreactivity |
| QVQLVESGGGLVQAGGSLRLSCAASGLIFYRNAMGRTRQAPGKERELVAAISASGGRTYYADSVKGRFTISRDTEKNTVYLPMNSLKPEDTAVYYCAAKSLLLSMDYWGQGTQVTVSS | high polyreactivity |
| QVQLVESGGGLVQAGGSLRLSCAASGLIFYRYAMGTTRQAPGKERELVATISGGGRTYYADSVKGRFTISRDNAKNTVYLQMNSLKPEDTAVYYCNADRQWYSIGSWEYDYWGQGTQVTVSS | high polyreactivity |
| QVQLVESGGGLVQAGGSLRLSCAASGLIFYRYAMGWYRQAPGKERELVAAITASGGTTYYADSVKGRFTISRDNAKNTVYLQMNSLKPEDTAVYDCASPYTYWRRIGVDYDYWGQGTQVTVSS | high polyreactivity |

| Sequence | polyreactivity (PSR sort gate) |
| --- | --- |
| QVQLVESGGGLVQAGGSLRLSCAASGLIFYRYAMGWYRQAPGTEREMVAAITTNGARTYYADSVKGRFTISRDNAKNTVYLEMNSLKPEDTAVYYCAAYGAGKFWADHNYWGQGTQVTVSS | high polyreactivity |
| QVQLVESGGGLVQAGGSLRLSCAASGLIFYSYAMGWYRQAPGKERELVAAITGGGSTNYADSVKGRFTISRDNAKNTVYLQMNSLKPEDTAVYYCAAAFTLRKYDYWGQGTQVTVSS | low polyreactivity |
| QVQLVESGGGLVQAGGSLRLSCAASGLIFYYYAKGWYRQAPGKEREFVAAISRSGGITRYADSVKGRFTISRDNAKITVYLQMNSLKPEDTAVYYCAADDYPLTYDDYYWGQGTQVTVSS | high polyreactivity |
| QVQLVESGGGLVQAGGSLRLSCAASGLIFYYYSMGWYRQAPGKERELVAAISGGGSTYYADSVKGRFTISRDNAKNTVYLQMNSLKPEDTAVYYCAADTRTSYYKDDYDYWGQGTQVTVSS | low polyreactivity |
| QVQLVESGGGLVQAGGSLRLSCAASGLIFYYYTMGWYIQAPGKVRELVAAISSAGSTYYADSVKGRFTISRDNAKNTVYLQMNSLKPEDTEVYYCATRSQAQYTRYYGYRQFYYWGQGTQVTVSS | high polyreactivity |
| QVQLVESGGGLVQAGGSLRLSCAASGLIFYYYVKGWYRQAPGKERELVAAISVIGDSTYYADSVKGRFTISRDNAKNTVYLQMNSLKPEDTAVYYCNADPWRWDRESRYEYWGQGTQVSVSS | high polyreactivity |
| QVQLVESGGGLVQAGGSLRLSCAASGLIIGVYAMGWYRQAPGKERELVAAITDGGSTYYADSVKGRFTISRDNAKNTVYLQMNSLKPEDTAVYYCNKLYTRVGFTFEYWGQGTQVTVSS | low polyreactivity |
| QVQLVESGGGLVQAGGSLRLSCAASGLIILPNAMGWYRQAPGKDRELVAAISSYDGSTYYADSVKGRFTISRDSAKNTVYLQMNSLKPEDTAVYYCAAGYYFQVEPDLVYIYSYEYWGQGTQVTVSS | low polyreactivity |
| QVQLVESGGGLVQAGGSLRLSCAASGLIIRNYAMGWYRPAPGKERELVAAISYNGGSTYYADSVKGRFTISRDNAKNTVYLQMNSLKPEDTAVYYCAAYYGVGYRRYYYWGQGTQVTVSS | high polyreactivity |
| QVQLVESGGGLVQAGGSLRLSCAASGLIIRWNAMGWYRQAPAKERELVAAINRGGSTYYADSVKGRFTISRDNAKNTVYLQMTSLKPEDTAVYYCAVGYAHSSNRRYYYKKTHGYWGQGTQVTVSS | low polyreactivity |
| QVQLVESGGGLVQAGGSLRLSCAASGLIIWLYTMGWYRQAPGKERELVAAIDWSGGSTYYADSVKGRFTISRDNAKNTDYLQMNSLKPEDTAVYYCAADPEPSYRFDYCGQGTQVTVSS | low polyreactivity |
| QVQLVESGGGLVQAGGSLRLSCAASGLILPDYAMGWYRQAPGKERELVAAISQRGGSTYYADSVKGRFTISRDNAKNSVYLQMYSLKPEDTAVYYCNALFRLRAYAEMDYWGQGTQVTVSS | high polyreactivity |
| QVQLVESGGGLVQAGGSLRLSCAASGLILRGYAMGWYRQAPGKERELVAAISGSGGRTYYADSVKGRFTISRDNAKNTVYLQMNSLKPEDTAVYYCNKGGIREYDYWGQGTQVTVSS | high polyreactivity |
| QVQLVESGGGLVQAGGSLRLSCAASGLILSSNAMGWYRQAPGKERELVAAITWDGDRTYADSVKGRFTISRDNAKNTVYLQMNSLKPEDTAVYYCAAPSYVSYDSEFGYWGQGTQVTVSS | low polyreactivity |
| QVQLVESGGGLVQAGGSLRLSCAASGLILSSNAMGWYRQAPGKERELVATISWSGDSTYYADSVKGRFTISRDNAKNTVYLQMNSLKPEDTAVYDCNADHFQWGAGYDYWGQGTQVTVSS | low polyreactivity |
| QVQLVESGGGLVQAGGSLRLSCAASGLILYHYAMGWYRQAPGKERELVAAISRSGGRTSYADSVKGRFTISRDNAKNTVYLQMNSLKPEDTAVFYCAAEKVGTRPSRDYDYWGQGTQVTVSS | high polyreactivity |
